From patent US20240084042A1 (Genentech, published 2024) come the findings set out here.

Holding throughout (assay): SPR, one-armed monovalent antibody
(SPR reads the build-up and loss of mass on a sensor chip optically.)

Test [1] deals with T1, human KLK5 (human, UniProt Q9Y337 67-293).
T1 construct: also called huKLK5; KLK5 AMC
T1 sequence: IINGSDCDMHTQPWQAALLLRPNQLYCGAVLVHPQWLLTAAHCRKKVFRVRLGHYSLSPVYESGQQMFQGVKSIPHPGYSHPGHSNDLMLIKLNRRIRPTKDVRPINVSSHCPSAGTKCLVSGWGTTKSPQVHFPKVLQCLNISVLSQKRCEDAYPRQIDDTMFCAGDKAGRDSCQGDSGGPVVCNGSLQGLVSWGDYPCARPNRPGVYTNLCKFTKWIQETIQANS

In test [2] the target is T2, cynomolgus monkey KLK5 (cynomolgus monkey, UniProt Q9Y337 67-293 (human entry)).
T2 construct: also called cyno KLK5
T2 chain: T1 sequence with M9E, R21G, A29G, V71I, R98H, P99S, K128R, K169E, R202K

Test [3] has as its target T1, human KLK5. This is another data set of the same source.
The target in test [4] is T2, cynomolgus monkey KLK5.

Changes are numbered by the printed parent chain. Numbers in names are those of the source. Read-outs that look alike come from different tables or passages of the source.

B1: OA.hu.9H5.H14L4.G54A.G98Q.H89V.S95Y (antibody, V domains shown)
VH: EVQLVESGGGLIQPGGSLRLSCAASGFSLSSYGVSWVRKAPGKGLEYVGFIGSAGFAYYASWAKSRFTISRDNSKNTLYLQMNSLRAEDTAVYYCARDDVQGGKSLDIWGQGTLVTVSS
VL: DIQMTQSPSSLSASVGDRVTITCQASQSISSYLSWYQEKPGKAPKLLIYSASTLASGVPSRFSGSGSGTDFTLTISSLQPEDFATYYCVQDYTSYNVDNTFGGGTKVEIK
notes: One-armed (OA) monovalent anti-KLK5 antibody with a human IgG1 Fc, with Q38E/Q39K; constant regions and dummy Fc chain not specified
By Kd is commonly meant the free concentration of one partner at which half of the binding sites on the other are occupied at equilibrium, for simple one-to-one binding. As usually defined, the koff is a measure of how fast the partners let go of each other. Usually kon stands for the rate constant with which the complex forms. As for B1, in the test with human KLK5 [1], binding was characterised by a dissociation constant (Kd) of 0.0121 nM, the koff came to 2.39e-05 s⁻¹ and the on-rate constant (kon) was found to be 1.98e+06 M⁻¹ s⁻¹. In the test with cynomolgus monkey KLK5 [2], this molecule came in with a dissociation constant (Kd) of 0.0146 nM, a dissociation rate constant (koff) of 5.75e-05 s⁻¹ and an on-rate constant (kon) of 3.95e+06 M⁻¹ s⁻¹.

B2: OA.hu.9H5.H14L4.G54A.H89V (antibody, V domains shown)
VH: B1 VH with Q101G
VL: B1 VL with Y95S
notes: as for B1
With B2, in the test with human KLK5 [1], the equilibrium dissociation constant (Kd) was determined as 0.0102 nM, the off-rate constant (koff) was determined as 3.85e-05 s⁻¹ and the kon stood at 3.79e+06 M⁻¹ s⁻¹. Also, in the test with cynomolgus monkey KLK5 [2], the dissociation constant Kd is 0.00893 nM, the koff came to 0.00011 s⁻¹ and the kon turned out to be 1.24e+07 M⁻¹ s⁻¹.

B3: OA.hu.9H5.H14L4 (antibody, V domains shown)
VH: B1 VH with A54G, Q101G
VL: B1 VL with V89H, Y95S
notes: as for B1
In the test with human KLK5 [1], B3 registered a Kd of 0.254 nM, a koff of 0.000272 s⁻¹ and an association rate constant (kon) of 1.07e+06 M⁻¹ s⁻¹. Moreover, in the test with cynomolgus monkey KLK5 [2], the affinity, expressed as Kd, was 0.0623 nM; the koff worked out at 0.000697 s⁻¹; the kon came out at 1.12e+07 M⁻¹ s⁻¹.

B4: OA.hu.9H5.H14L4.G54A.G98Q.S95Y (antibody, V domains shown)
VH: B1 VH
VL: B1 VL with V89H
notes: as for B1
As to B4, in the test with human KLK5 [1], the Kd worked out at 0.00994 nM, the dissociation rate constant (koff) is 2.71e-05 s⁻¹ and the kon was determined as 2.73e+06 M⁻¹ s⁻¹. In the test with cynomolgus monkey KLK5 [2], this molecule showed an equilibrium dissociation constant (Kd) of 0.0154 nM, a koff of 9.18e-05 s⁻¹ and a kon of 5.97e+06 M⁻¹ s⁻¹.

B5: OA.hu.9H5.H14L4.G98Q.H89V (antibody, V domains shown)
VH: B1 VH with A54G
VL: B1 VL with Y95S
notes: as for B1
As for B5, in the test with human KLK5 [1], binding was characterised by a dissociation constant (Kd) of 0.0186 nM, the koff came out at 4.46e-05 s⁻¹ and the kon was found to be 2.4e+06 M⁻¹ s⁻¹. In the test with cynomolgus monkey KLK5 [2], the Kd worked out at 0.00978 nM, the off-rate (koff) was determined as 0.000145 s⁻¹ and the on-rate (kon) was 1.48e+07 M⁻¹ s⁻¹.

B6: OA.hu.9H5.H14L4.G98Q.H89V.S95Y (antibody, V domains shown)
VH: B1 VH with A54G
VL: B1 VL
notes: as for B1
For B6, in the test with human KLK5 [1], binding was put at a Kd of 0.0199 nM, the off-rate constant (koff) is 4.91e-05 s⁻¹ and the kon was found to be 2.47e+06 M⁻¹ s⁻¹. In addition, in the test with cynomolgus monkey KLK5 [2], binding was characterised by a dissociation constant (Kd) of 0.033 nM, the koff turned out to be 0.000133 s⁻¹ and the on-rate constant (kon) came out at 4.02e+06 M⁻¹ s⁻¹.

B7: OA.hu.9H5.H14L4.G54A.S95Y (antibody, V domains shown)
VH: B1 VH with Q101G
VL: B1 VL with V89H
notes: as for B1
On to B7, for which, in the test with human KLK5 [1], the dissociation constant (Kd) came out at 0.0162 nM, the off-rate (koff) came to 1.6e-05 s⁻¹ and the on-rate (kon) amounted to 992000 M⁻¹ s⁻¹. In the test with cynomolgus monkey KLK5 [2], this molecule showed a Kd of 0.0175 nM, a koff of 8.44e-05 s⁻¹ and a kon of 4.82e+06 M⁻¹ s⁻¹.

B8: OA.hu.9H5.H14L4.G54A.G98Q.H89V (antibody, V domains shown)
VH: B1 VH
VL: B1 VL with Y95S
notes: as for B1
As to B8, in the test with human KLK5 [1], the dissociation constant Kd is 0.000348 nM, the koff worked out at 2.97e-06 s⁻¹ and the association rate constant (kon) is 8.54e+06 M⁻¹ s⁻¹. Further, in the test with cynomolgus monkey KLK5 [2], binding was characterised by a dissociation constant (Kd) of 0.00298 nM, the koff turned out to be 6.52e-05 s⁻¹ and the kon was determined as 2.19e+07 M⁻¹ s⁻¹.

B9: OA.hu.9H5.H14L4.G54A.H89V.S95Y (antibody, V domains shown)
VH: B1 VH with Q101G
VL: B1 VL
notes: as for B1
In the test with human KLK5 [1], B9 gave a Kd of 0.0196 nM, an off-rate (koff) of 1.37e-05 s⁻¹ and a kon of 699000 M⁻¹ s⁻¹. In the test with cynomolgus monkey KLK5 [2], the dissociation constant Kd amounted to 0.0172 nM, the off-rate constant (koff) stood at 7.36e-05 s⁻¹ and the association rate constant (kon) was 4.28e+06 M⁻¹ s⁻¹.

B10: OA.hu.9H5.H14L4.G98Q.S95Y (antibody, V domains shown)
VH: B1 VH with A54G
VL: B1 VL with V89H
notes: as for B1
In the test with human KLK5 [1], B10 displayed a dissociation constant (Kd) of 0.0502 nM, a koff of 3.94e-05 s⁻¹ and an on-rate constant (kon) of 785000 M⁻¹ s⁻¹. In the test with cynomolgus monkey KLK5 [2], this molecule had a Kd of 0.0361 nM, an off-rate constant (koff) of 0.000145 s⁻¹ and an association rate constant (kon) of 4.02e+06 M⁻¹ s⁻¹.

B11: OA.hu.10C5.L5H28.WT (antibody, V domains shown)
VH: EVQLVESGGGLVQPGGSLRLSCAASGFSLSSYGVTWVRQAPGKGLEWIGYITSNYGVSYYASWAKSRSTISRDTSKNTVYLQMGSLRAEDMAVYYCARENPDYGYAYDAWGQGTTVTVSS
VL: AIRMTQSPSSFSASTGDRVTITCQASESISNELSWYQQKPGKAPKLLIYYASTLASGVPSRFSGSGSGTDFTLTISSLQPEDFATYYCAQGFGSSGVENVFGGGTKVEIK
notes: One-armed (OA) monovalent anti-KLK5 antibody with a human IgG1 Fc, without Q38E/Q39K; constant regions and dummy Fc chain not specified
For the molecule B11, in the test with human KLK5 [3], the Kd stood at 0.102 nM, the koff was 0.00128 s⁻¹ and the kon amounted to 1.25e+07 M⁻¹ s⁻¹. Also, in the test with cynomolgus monkey KLK5 [4], the equilibrium dissociation constant (Kd) was determined as 0.371 nM, the off-rate constant (koff) amounted to 0.00424 s⁻¹ and the kon was found to be 1.14e+07 M⁻¹ s⁻¹.

B12: OA.hu.10C5.N53V.S95F (antibody, V domains shown)
VH: B11 VH with Q39K, N54V
VL: B11 VL with Q38E, S95F
notes: as for B1
In the test with human KLK5 [3], B12 displayed a Kd of 0.00259 nM, a koff of 1.51e-05 s⁻¹ and a kon of 5.82e+06 M⁻¹ s⁻¹. Moreover, in the test with cynomolgus monkey KLK5 [4], the Kd is 0.00744 nM, the koff was 0.0001 s⁻¹ and the on-rate (kon) amounted to 1.35e+07 M⁻¹ s⁻¹.

B13: OA.hu.10C5.N53V.S34K.S95F (antibody, V domains shown)
VH: B11 VH with Q39K, N54V
VL: B11 VL with S34K, Q38E, S95F
notes: as for B1
As to B13, in the test with human KLK5 [3], the dissociation constant (Kd) is under 0.000235 nM, the off-rate constant (koff) was under 1e-06 s⁻¹ and the kon was 4.25e+06 M⁻¹ s⁻¹. Besides, in the test with cynomolgus monkey KLK5 [4], the affinity, expressed as Kd, was 0.00303 nM; the koff was 2.86e-05 s⁻¹; the kon is 9.41e+06 M⁻¹ s⁻¹.

B14: OA.hu.10C5.N53V.S34K.F92Y (antibody, V domains shown)
VH: B11 VH with Q39K, N54V
VL: B11 VL with S34K, Q38E, F92Y
notes: as for B1
With B14, in the test with human KLK5 [3], the equilibrium dissociation constant (Kd) is under 0.000334 nM, the off-rate (koff) is under 1e-06 s⁻¹ and the kon came to 3e+06 M⁻¹ s⁻¹. In the test with cynomolgus monkey KLK5 [4], the Kd was 0.00522 nM, the off-rate constant (koff) was determined as 3.08e-05 s⁻¹ and the kon is 5.9e+06 M⁻¹ s⁻¹.

B15: OA.hu.10C5.N53V.F92Y.S95F (antibody, V domains shown)
VH: B11 VH with Q39K, N54V
VL: B11 VL with Q38E, F92Y, S95F
notes: as for B1
In the test with human KLK5 [3], B15 had a Kd of 0.000853 nM, a dissociation rate constant (koff) of 8.65e-06 s⁻¹ and a kon of 1.01e+07 M⁻¹ s⁻¹. In the test with cynomolgus monkey KLK5 [4], binding was put at a Kd of 0.00376 nM, the koff came to 5.72e-05 s⁻¹ and the kon turned out to be 1.52e+07 M⁻¹ s⁻¹.

B16: OA.hu.10C5.N53V.S34K.F92Y.S95F (antibody, V domains shown)
VH: B11 VH with Q39K, N54V
VL: B11 VL with S34K, Q38E, F92Y, S95F
notes: as for B1
As to B16, in the test with human KLK5 [3], the Kd came to 0.000367 nM, the koff amounted to 1.88e-06 s⁻¹ and the kon is 5.13e+06 M⁻¹ s⁻¹. In the test with cynomolgus monkey KLK5 [4], binding was characterised by a dissociation constant (Kd) of 0.00265 nM, the koff was 2.81e-05 s⁻¹ and the on-rate (kon) is 1.06e+07 M⁻¹ s⁻¹.

B17: OA.hu.10C5.N53V (antibody, V domains shown)
VH: B11 VH with N54V
VL: B11 VL
notes: as for B11
As for B17, in the test with human KLK5 [3], the affinity, expressed as Kd, was 0.0135 nM; the off-rate (koff) came to 9.23e-05 s⁻¹; the on-rate (kon) came out at 6.84e+06 M⁻¹ s⁻¹. Moreover, in the test with cynomolgus monkey KLK5 [4], binding was put at a Kd of 0.0355 nM, the koff came to 0.00052 s⁻¹ and the kon worked out at 1.46e+07 M⁻¹ s⁻¹.

B18: OA.hu.10C5.N53V.F92Y (antibody, V domains shown)
VH: B11 VH with Q39K, N54V
VL: B11 VL with Q38E, F92Y
notes: as for B1
For B18, in the test with human KLK5 [3], the dissociation constant (Kd) turned out to be 0.00382 nM, the off-rate constant (koff) was 2.45e-05 s⁻¹ and the on-rate (kon) amounted to 6.41e+06 M⁻¹ s⁻¹. In the test with cynomolgus monkey KLK5 [4], this molecule registered a Kd of 0.00885 nM, a dissociation rate constant (koff) of 0.000161 s⁻¹ and a kon of 1.82e+07 M⁻¹ s⁻¹.

B19: OA.hu.10C5.N53V.S34K (antibody, V domains shown)
VH: B11 VH with Q39K, N54V
VL: B11 VL with S34K, Q38E
notes: as for B1
In the test with human KLK5 [3], B19 displayed a Kd of 0.00289 nM, an off-rate constant (koff) of 9.88e-06 s⁻¹ and an association rate constant (kon) of 3.42e+06 M⁻¹ s⁻¹. Also, in the test with cynomolgus monkey KLK5 [4], the affinity, expressed as Kd, was 0.0162 nM; the koff is 8.88e-05 s⁻¹; the association rate constant (kon) was determined as 5.48e+06 M⁻¹ s⁻¹.
